This data set can be described thus: label from the status in PepcDB records.
Regarding “METNFSIPLNETEEVLPEPAGHTVLWIFSLLVHGVTFVFGVLGNGLVIWVAGFRMTRTVNTICYLNLALADFSFSAILPFRMVSVAMREKWPFGSFLCKLVHVMIDINLFVSVYLITIIALDRCICVLHPAWAQNHRTMSLAKRVMTGLWIFTIVLTLPNFIFWTTISTTNGDTYCIFNFAFWGDTAVERLNVFITMAKVFLILHFIIGFSVPMSIITVCYGIIAAKIHRNHMIKSSRPLRVFAAVVASFFICWFPYELIGILMAVWLKEMLLNGKYKIILVLINPTSSLAFFNSCLNPILYVFMGRNFQERLIRSLPTSLERALTEVPDSAQTSNTDTTSASPPEETELQAM”, the protein production entry is reported as “failed”.
“METNKYLELIKQELANMPDFVKEYNLGTSHSLTTTYQYLTEIRRFFDWLRQNNIASVSSNKEIEVTTLENLQRNDVMLYIHHLKHTKNQQGRLNSPTTINRSINALRSLYKFLTITSDNNHGEPYFDRNVMLKINSLNDTKTLNYRAHVLESHMYMGDLKYQFLDFIENEYIHKCNKQSLPAFKKNHERDMAIIALILGTGIRVSECVGVNMRNINLKDAMLDVTRKGGQKDSVPIAEWTIPYLKKYREIRADHYHAEKEDIAFFLTRWHGKTKRITTNAVEKMVNKYSAAFGKPLTPHKLRHTLASELYEVTKDQVLVAQQLGQKGTTATDLYTHVDQKKQKAALNKINRYKSSD”: the protein production result is given as “failed”.
Regarding “METPAVSLLVAVYNTETYIRTCLESLRNQTMDNIEIIIVNDGSADASPDIAEEYAKMDNRFKVIHQENQGLGAVRNKGIEAARGEFIAFIDSDDWIEPDYCEQMLRTAGDETDLVICNYAAEFEDTGKTMDSDIAQTYQDQPKEHYIKALFEGKVRGFSWNKLYRRSMIEAHRLSFPLRGELEHVEDQFFSFRAHFFARSVSYVKTPLYHYRIHLSSIVQRYQKKLFESGLALYETNAAFLQENNKLEEYRKELDTFIVLHSSICMLNEWKTSGSRRLFEKLRNVGVICADPVFQESLSKTGTAPFDAKRSCLLLMAKYRMIPFVAMASAVYQRVIEYKMRNRG”, the protein production result was “failed”.
Under “METPNPLTLSELPHDLLRNIFNRLSFADFHRATWNSISKQTAPPKTKSPWLILFPDEGVHGCVLYNPDEDRIYKSVRDFSGTIFLANSGNWFLVMDSKSNLYIIDVFSENRIDLPPLESLLSDNFTFEQKGDKELKWQASNDQILVFRLPRAEELRGILWVDEKMKEFVAVWFLEDSCNFLAFYKKADDHYSHIQLEYVITDVFQSVSDIVLHGCFLYIGVGDYIQIIDLSKDQGFKDVTRNYLFNVHNGPWGFRSIFNLVVTTSGEVLMVLNNLYEKNIESEKSFRIFKKDPNPDPNKHDNLLVEVDSLGNEEVMLLDLGITMHGIEPNSIYFTRHDRVVHRLYIS” stands “not failed”; under “METPYTDHLSPEDFEHVYEPAEDSFLLLDALEKDLEYLDRLQPSLCVELGSGSGVIITALAKKLAGFSLCLATDINPKACNATRRTATRNGARLDSIRCSLADALRPRSVDVLLFNPPYVVTSDEELQTQQFDSHSESSTDRNLVFSWAGGQDGRRVTDILLKQLDDILSPRGVLYLLLLRENKPEEIIKYLEGLQFRAVKFMERRIPGEHLCILKVTRYLASS”, “failed”.
Then “METRFVTPFHHLLVNNLVANITNFTIWFALTFYVYLETKSVFATGMIAGVYLVLTAACGIWFGSLVDHHRKKLAMAGSSLASLLLYALALAVLLLAPKGAIADVGRPWLWALIGLSMLGVIAGNIRTIALPTLVTLLIPEDRRDKANGLVGMVSGVGFLTTSVISGFLVAWGGMLAALTFALGFTVAALVHLLTVPVDEPRVEAEHGAPVAPRRIDLAGTIKVVAAVPGLFALILFATFNNFLGGIFMALLDAYGLSMVSVQAWGLLFGFLSVAFIISGLAISKTGLGKNPLRTLLLVNLISWAVCCVFPLKSSIVMLAMGCFVWMLLGPYAEAAEQTTLQKVVPFERQGRVFGFAQSVEQAASPLTAFLIGPLTQFIVIPFMTHGAGAAAIGDWFGRGPDRGMALVFTLAGVVGLIVTLLAFGSKAYRQLSAAYAQGEPAPAA”, with “failed”.

Source of the values: a protein production outcome set (Wang et al. 2014).
